B1: TPR t1 (parent)
chain: GACCAAUCUGCCCUCAGAGCUCGAGAACAUCUUCGGAUGCAGAGGAGGCAGGCUUCGGUGGCGCGAUAGCGCCAACGUCCUCAACCUCCAAUGCAUCCCACCACAUGAUGAUGCCUGAAGAGCCUUGGUUUUUUG

Variants of: B1
Experiment: polymerase ribozyme fitness, log enrichment relative to wild type (log ratio); higher = more active; in vitro selection for triplet polymerase activity
In short: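 Each subunit of a heterodimeric triplet polymerase ribozyme was mutagenized into a library by PCR, transcribed, and subjected to one round of in vitro selection, run in triplicate. Libraries were annealed with a biotinylated primer, the partner subunit and triplets, incubated frozen at −7 °C, and extended constructs were gel-excised, captured on streptavidin beads and recovered by RT-PCR. Input and output libraries were sequenced on Illumina, keeping genotypes with ≥10 input reads and ≥1 read per output. Fitness is log base 2 of genotype enrichment divided by wild-type enrichment, from inverse-variance-weighted replicate averages.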

| Variant | polymerase ribozyme fitness (log ratio) |
| --- | --- |
| U7G | 0.469 |
| U7C | 0.304 |
| U7C G135U | -0.566 |
| U7G U54C G58A U92C | -0.551 |
| U7C U116C | 0.603 |
| U7C U14A A46U C64U | -2.69 |
| C8A A37C U78G A100C C101A U106G | -5.27 |
| U7C G17A A84U | -2.39 |
| U7C C8G C64G C85A U112G | -6.03 |
| U7G U38C G45U C97U U133G | -2.84 |
| U7G C15A A16G C53A C64U | -1.35 |
| U7G C20U C53U A68C U112A | -6.37 |
| U7C G36U G47C G48C | -2.23 |
| U7C G69U C80A A83U G128C | -5.37 |
| U7C U14A U32A C53G G63C G120A | -4.32 |
| U7G G10U G42U A46C U54A G57A C101U C114U | -4.29 |
| U7A U130A | -0.147 |
| U7G C22G G47C G60U A84U | -5.01 |
| U7G C79A C99U | -5.33 |
| U7C U78C C85A C124G | -0.586 |
| U7G C49A | 0.309 |

| Variant | polymerase ribozyme fitness (log ratio) |
| --- | --- |
| U7C C64U A100U | -0.384 |
| U7C A46G A108G C123A | -1.51 |
| U7G G110C | -3.83 |
| U7G U21C U59G G63A U116G C124G U131A | -5.19 |
| U7G C64U C73G C89A C104U A119U | -6.4 |
| U7C C13U G47U C85A A111U | -5.01 |
| U7C A91G C123U U126A | 0.505 |
| U7G G63A C102U | -3.01 |
| U7G C31G U38A G69A C80U C101G G120A | -7.18 |
| C8A C11U A121U | 2.14 |
| U7C G17U G35C U96A C97U U112A | -6.44 |
| U7G A68U | -6.53 |
| C8A A16C G47A C70U G110A U131A | -3.91 |
| U7G A26G C34U G113A | -4.39 |
| U7C G10A U14A C53G C56G A84U G117U | -6.36 |
| C8A C13A A27G | -4.58 |
| U7C C15U G45A U92A | -4.93 |
| U7G C40G A50U | -0.282 |
| U7C C8G G45A C53U G63A U87A | -1.06 |
| C8A C13G | -0.0841 |
| C8A A75G G117A A121U | 1.31 |

| Variant | polymerase ribozyme fitness (log ratio) |
| --- | --- |
| U7G C40G C56U G69U | -2.3 |
| U7G C11U A18C G45U C53A G57U C72U | -3.58 |
| U7G C73G C89A C104U A119U | -2.52 |
| U7C G10C G60C C102U U112C | -2.68 |
| C8A A46U G61A G117C | -2.38 |
| C8A A91G | -0.00436 |
| U7G C70U A83U U131A | 0.0577 |
| U7G G35C U130G | -4.31 |
| U7G G42C G71A C89G | -2.37 |
| C8A C13U C20A C40A C49A A111G G117A U130C | -5.75 |
| U7C G17A | -1.12 |
| U7G G45C C72G C82A C98A | -5.33 |
| U7G A29G C89A C115A G122A | -1.64 |
| U7A U92A | -2.1 |
| U7G G117C | -1.81 |
| U7G C28A G57U G110C | -1.2 |
| U7G G61A | 0.0552 |
| U7C G17C A121G | -1.82 |
| U7C C40A | -0.659 |
| U7C G36A U116C A118U U132A | -2.98 |
| U7G G39A G58A G69C C97U | -1.38 |

| Variant | polymerase ribozyme fitness (log ratio) |
| --- | --- |
| U7G C70A A100U | -2.41 |
| U7G G10U C15A U54A C104A | -3.26 |
| U7G C70A U87A A121G | 1.36 |
| U7G C101G A121C | -0.603 |
| U7C A18G G117C | -4.72 |
| U7C C101A | -0.57 |
| U7C C101G | -1.98 |
| U7C A27C | -2.46 |
| C8A A37G C62G C99U G122A | -6.04 |
| C8A A24G C28A A84C A121U | -3.25 |
| U7G G52C A90C U130A | -1.64 |
| C8A C13U U55G G93A | -0.498 |
| U7C A16G C20U G120U | -2.78 |
| U7G G52A C85A U87G | -1.55 |
| C8A A26U A46C C56U | -2.74 |
| U7C C15A A46U G48U U130C | -2.63 |
| U7C G69A C88A | -2.92 |
| U7G G48U U59C C86G | -1.39 |
| U7G U38G U54C C56U G110A G122U | -3.58 |
| U7G G77C C97U U109A | -6.1 |
| U7A U116G | -1.35 |

Reference: the RNAGym collection of RNA variant scans (doi:10.1073/pnas.2313332121)
